The chains are these.
T1: C2 domain of FVIII (Homo sapiens (Human), UniProt P00451 2192-2351)
T1 construct: Negative control
T1 sequence: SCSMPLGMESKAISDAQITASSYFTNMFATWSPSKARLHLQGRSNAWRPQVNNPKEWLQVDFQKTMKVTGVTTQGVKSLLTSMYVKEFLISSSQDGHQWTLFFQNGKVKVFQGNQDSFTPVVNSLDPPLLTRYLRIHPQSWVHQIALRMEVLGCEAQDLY

Where no end group is shown, it is not given here.

In one experiment the target is T1, C2 domain of FVIII. Kind of experiment: BLI (Octet Red), biotinylated peptide on streptavidin sensor.
Turning to DMFKSVRQLMMSRGR (also: biotinylated (position not given here), random peptide of the Octet screening) [SEQ ID NO 13], the binding result was “no binding”.
Consider IADKEYTNIFLKFGSGYVS (also: biotinylated (position not given here), random peptide of the Octet screening) [SEQ ID NO 19], for which the binding result was “no binding”.
The same measure, in the same setting: for EMMKPNYADLIMRKR (also: biotinylated (position not given here), random peptide of the Octet screening) [SEQ ID NO 10] the value was “no binding”; for ISRWRLLMGKKSQHD (also: biotinylated (position not given here), random peptide of the Octet screening) [SEQ ID NO 18], “no binding”; for PIRIMIHSLIMNRPT (also: biotinylated (position not given here), random peptide of the Octet screening) [SEQ ID NO 4], “no binding”.
Same read-out and setting: for EPLMTMKMIRVMRKL (also: biotinylated (position not given here), random peptide of the Octet screening) [SEQ ID NO 8] the value was “no binding”; for RMRMYSSLRAWKESA (also: biotinylated (position not given here), random peptide of the Octet screening) [SEQ ID NO 3], “no binding”; for TERQMIHKIFALMSG (also: biotinylated (position not given here), random peptide of the Octet screening) [SEQ ID NO 9], “no binding”.
Still for that read-out and setting: for SPWSWQRQMKKWTPQ (also: biotinylated (position not given here), random peptide of the Octet screening) [SEQ ID NO 15] the value was “no binding”; for EYISWEYC (also: biotinylated (position not given here), random peptide of the Octet screening) [SEQ ID NO 22], “no binding”; for IADKEYTNIFLKFGVSVLVDRATCLRSTKFTIYNN (also: biotinylated (position not given here), random peptide of the Octet screening) [SEQ ID NO 21], “no binding”.
Take LSGKNGPWVKMIMWG (also: biotinylated (position not given here), random peptide of the Octet screening) [SEQ ID NO 11]: the binding result is “no binding”.
For SPSWVRPSIMEWRMN (also: biotinylated (position not given here), random peptide of the Octet screening) [SEQ ID NO 5], the binding result is reported as “no binding”.
The same measure, in the same setting: for KKRDARTNYRYMAYS (also: biotinylated (position not given here), random peptide of the Octet screening) [SEQ ID NO 17] the value was “no binding”.
The same measure, in the same setting: for QRIKGLHFATSMGYA (also: biotinylated (position not given here), random peptide of the Octet screening) [SEQ ID NO 14] the value was “no binding”; for TTWGMRIRLFERQAR (also: biotinylated (position not given here), random peptide of the Octet screening) [SEQ ID NO 2], “no binding”; for WKHHMRKAIPKYEGK (also: biotinylated (position not given here), random peptide of the Octet screening) [SEQ ID NO 12], “no binding”.
In the case of RVPLVDRATCLRSTKFTIYNN (also: biotinylated (position not given here), random peptide of the Octet screening) [SEQ ID NO 20], the binding result is “no binding”.
On the same count and under the same terms, for NKLTSGDRPGLWFMV (also: biotinylated (position not given here), random peptide of the Octet screening) [SEQ ID NO 6] the value was “no binding”; for RDERMKLIRNFSPIM (also: biotinylated (position not given here), random peptide of the Octet screening) [SEQ ID NO 7], “no binding”; for AYRPSTSREHWRRHW (also: biotinylated (position not given here), random peptide of the Octet screening) [SEQ ID NO 16], “no binding”.
Regarding WCPFGFEGKNCELDVTCNIKNGRCEQFCKNSADNKVVCS (cysteine pairing not given here; also: biotinylated (position not given here), random peptide of the Octet screening) [SEQ ID NO 23], the binding result is “no binding”.

The target of another experiment is T2, recombinant FIX (UniProt P00740 47-461).
T2 construct: Negative control; also called factor IX
T2 sequence (P00740 47-461 limits assumed): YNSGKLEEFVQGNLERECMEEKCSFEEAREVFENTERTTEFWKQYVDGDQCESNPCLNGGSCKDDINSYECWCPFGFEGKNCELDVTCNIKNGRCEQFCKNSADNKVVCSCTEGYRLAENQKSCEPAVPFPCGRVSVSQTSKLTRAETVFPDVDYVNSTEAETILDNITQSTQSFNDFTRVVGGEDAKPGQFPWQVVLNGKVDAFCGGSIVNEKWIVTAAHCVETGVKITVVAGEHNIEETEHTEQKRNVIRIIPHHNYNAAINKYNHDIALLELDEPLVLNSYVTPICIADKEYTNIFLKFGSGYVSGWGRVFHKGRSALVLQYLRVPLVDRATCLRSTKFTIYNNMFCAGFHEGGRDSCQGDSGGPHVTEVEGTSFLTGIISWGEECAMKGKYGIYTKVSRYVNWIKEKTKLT
Described as above.
Consider DMFKSVRQLMMSRGR (also: biotinylated (position not given here), random peptide of the Octet screening) [SEQ ID NO 13], for which the binding result is “no binding”.
In the case of IADKEYTNIFLKFGSGYVS (also: biotinylated (position not given here), random peptide of the Octet screening) [SEQ ID NO 19], the binding result is “no binding”.
Take EMMKPNYADLIMRKR (also: biotinylated (position not given here), random peptide of the Octet screening) [SEQ ID NO 10]: the binding result is listed as “no binding”.
In the case of ISRWRLLMGKKSQHD (also: biotinylated (position not given here), random peptide of the Octet screening) [SEQ ID NO 18], the binding result is listed as “no binding”.
The same measure, in the same setting: for PIRIMIHSLIMNRPT (also: biotinylated (position not given here), random peptide of the Octet screening) [SEQ ID NO 4] the value was “no binding”.
On the same count and under the same terms, for EPLMTMKMIRVMRKL (also: biotinylated (position not given here), random peptide of the Octet screening) [SEQ ID NO 8] the value was “no binding”; for RMRMYSSLRAWKESA (also: biotinylated (position not given here), random peptide of the Octet screening) [SEQ ID NO 3], “no binding”; for TERQMIHKIFALMSG (also: biotinylated (position not given here), random peptide of the Octet screening) [SEQ ID NO 9], “no binding”.
Still for that read-out and setting: for SPWSWQRQMKKWTPQ (also: biotinylated (position not given here), random peptide of the Octet screening) [SEQ ID NO 15] the value was “no binding”; for EYISWEYC (also: biotinylated (position not given here), random peptide of the Octet screening) [SEQ ID NO 22], “no binding”.
As to IADKEYTNIFLKFGVSVLVDRATCLRSTKFTIYNN (also: biotinylated (position not given here), random peptide of the Octet screening) [SEQ ID NO 21], the binding result is given as “no binding”.
With LSGKNGPWVKMIMWG (also: biotinylated (position not given here), random peptide of the Octet screening) [SEQ ID NO 11], the binding result was “no binding”.
Still for that read-out and setting: for SPSWVRPSIMEWRMN (also: biotinylated (position not given here), random peptide of the Octet screening) [SEQ ID NO 5] the value was “no binding”.
Consider KKRDARTNYRYMAYS (also: biotinylated (position not given here), random peptide of the Octet screening) [SEQ ID NO 17], for which the binding result is on record as “no binding”.
The same measure, in the same setting: for QRIKGLHFATSMGYA (also: biotinylated (position not given here), random peptide of the Octet screening) [SEQ ID NO 14] the value was “no binding”; for TTWGMRIRLFERQAR (also: biotinylated (position not given here), random peptide of the Octet screening) [SEQ ID NO 2], “no binding”; for WKHHMRKAIPKYEGK (also: biotinylated (position not given here), random peptide of the Octet screening) [SEQ ID NO 12], “no binding”.
On the same count and under the same terms, for RVPLVDRATCLRSTKFTIYNN (also: biotinylated (position not given here), random peptide of the Octet screening) [SEQ ID NO 20] the value was “no binding”.
The same measure, in the same setting: for NKLTSGDRPGLWFMV (also: biotinylated (position not given here), random peptide of the Octet screening) [SEQ ID NO 6] the value was “no binding”; for RDERMKLIRNFSPIM (also: biotinylated (position not given here), random peptide of the Octet screening) [SEQ ID NO 7], “no binding”.
With AYRPSTSREHWRRHW (also: biotinylated (position not given here), random peptide of the Octet screening) [SEQ ID NO 16], the binding result is on record as “no binding”.
Still for that read-out and setting: for WCPFGFEGKNCELDVTCNIKNGRCEQFCKNSADNKVVCS (cysteine pairing not given here; also: biotinylated (position not given here), random peptide of the Octet screening) [SEQ ID NO 23] the value was “no binding”.

The record behind these values is patent WO2011095604A1 (dated 2011).
